Results published in publication PMC5624926 (2017).
Where two headings read alike, the source gives them in different places.

Columns and labels:
CD22_(20–687) [1] = target: T1, CD22_(20–687) (human, UniProt P20273 20-687, N-linked glycans; glycoform not stated); experiment: BLI
CD22_(20–687) [2] = target: T1, CD22_(20–687); experiment: BLI; remark: listed apart in the source

Kd (CD22_(20–687) [1]) [nM]	Kd (CD22_(20–687) [2]) [nM]	Binder
1700		epratuzumab Y(L27D)A (antibody, V domains shown) VH: QVQLVQSGAEVKKPGSSVKVSCKASGYTFTSYWLHWVRQAPGQGLEWIGYINPRNDYTEYNQNFKDKATITADESTNTAYMELSSLRSEDTAFYFCARRDITTFYWGQGTTVTVSS VL: DIQLTQSPSSLSASVGDRVTMSCKSSQSVLASANHKNYLAWYQQKPGKAPKLLIYWASTRESGVPSRFSGSGSGTDFTLTISSLQPEDIATYYCHQYLSSWTFGGGTKLEIKR
260		epratuzumab N(H52)A (antibody, V domains shown) VH: QVQLVQSGAEVKKPGSSVKVSCKASGYTFTSYWLHWVRQAPGQGLEWIGYIAPRNDYTEYNQNFKDKATITADESTNTAYMELSSLRSEDTAFYFCARRDITTFYWGQGTTVTVSS VL: DIQLTQSPSSLSASVGDRVTMSCKSSQSVLYSANHKNYLAWYQQKPGKAPKLLIYWASTRESGVPSRFSGSGSGTDFTLTISSLQPEDIATYYCHQYLSSWTFGGGTKLEIKR
	120	epratuzumab Fab (Fab, V domains shown) VH: QVQLVQSGAEVKKPGSSVKVSCKASGYTFTSYWLHWVRQAPGQGLEWIGYINPRNDYTEYNQNFKDKATITADESTNTAYMELSSLRSEDTAFYFCARRDITTFYWGQGTTVTVSS VL: DIQLTQSPSSLSASVGDRVTMSCKSSQSVLYSANHKNYLAWYQQKPGKAPKLLIYWASTRESGVPSRFSGSGSGTDFTLTISSLQPEDIATYYCHQYLSSWTFGGGTKLEIK
